We go through 2 substances from patent publication US20050277581A1.

Several values for one entry are separate records, joined by “and”; a condition that tells them apart may be missing. Equal entries are not always repeated. Where only a bound is given, the exact number is not on record here.

Assay [1] deals with N,N′-diacetyl-Lys-D-Ala-D-Ala (Sigma D-9904, fw 372.4). Description: ITC, 25 C, 104 µM HSA present.
For assay [2] the target is unchanged. As to the kind of experiment: ITC, 37 C, 482 µM HSA present.
Assay [3] shares this target. Description: ITC, preliminary experiments, no serum proteins.
Assay [4] has the same target. As to the kind of experiment: ITC, 25 C, 601 µM HSA present.
The target of another assay is bovine albumin (bovine) (UniProt P02769). As to the kind of experiment: ITC, protein injected into dalbavancin.
bovine albumin (bovine), sequence (P02769 25-607 limits assumed): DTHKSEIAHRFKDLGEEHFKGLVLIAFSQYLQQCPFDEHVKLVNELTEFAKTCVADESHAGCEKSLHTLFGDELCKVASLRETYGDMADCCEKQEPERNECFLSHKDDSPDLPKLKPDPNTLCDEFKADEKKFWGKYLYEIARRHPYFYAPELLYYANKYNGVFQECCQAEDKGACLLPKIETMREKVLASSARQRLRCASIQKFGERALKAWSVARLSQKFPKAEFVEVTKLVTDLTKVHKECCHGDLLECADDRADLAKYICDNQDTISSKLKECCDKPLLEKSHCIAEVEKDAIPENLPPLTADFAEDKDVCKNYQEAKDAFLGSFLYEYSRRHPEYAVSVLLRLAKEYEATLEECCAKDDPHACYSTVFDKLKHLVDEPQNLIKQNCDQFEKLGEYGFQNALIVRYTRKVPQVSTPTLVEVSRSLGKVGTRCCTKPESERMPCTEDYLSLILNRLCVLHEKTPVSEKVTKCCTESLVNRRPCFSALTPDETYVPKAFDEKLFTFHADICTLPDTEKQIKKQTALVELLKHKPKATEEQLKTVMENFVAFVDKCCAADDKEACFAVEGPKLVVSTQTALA
In a further assay the target is rat albumin (rat) (UniProt P02770). As to the kind of experiment: ITC, protein injected into dalbavancin.
rat albumin (rat), sequence (P02770 25-608 limits assumed): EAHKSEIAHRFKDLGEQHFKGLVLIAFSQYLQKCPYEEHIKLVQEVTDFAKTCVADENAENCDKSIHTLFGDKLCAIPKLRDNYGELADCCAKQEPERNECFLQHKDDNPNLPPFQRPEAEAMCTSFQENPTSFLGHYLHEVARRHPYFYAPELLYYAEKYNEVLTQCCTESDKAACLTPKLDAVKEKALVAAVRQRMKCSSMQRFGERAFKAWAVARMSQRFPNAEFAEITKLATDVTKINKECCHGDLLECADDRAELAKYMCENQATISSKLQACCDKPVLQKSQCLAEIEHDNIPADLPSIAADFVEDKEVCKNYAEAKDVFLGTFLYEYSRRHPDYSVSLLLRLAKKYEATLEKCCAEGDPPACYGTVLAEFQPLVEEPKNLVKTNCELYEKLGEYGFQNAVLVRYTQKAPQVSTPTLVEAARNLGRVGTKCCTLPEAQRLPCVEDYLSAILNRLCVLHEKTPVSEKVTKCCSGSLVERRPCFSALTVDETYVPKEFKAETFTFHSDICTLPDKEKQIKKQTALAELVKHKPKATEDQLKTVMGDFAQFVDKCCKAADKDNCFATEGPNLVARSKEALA
A further assay concerns the target dog albumin (dog) (UniProt P49822). Description: ITC, protein injected into dalbavancin.
Assay [5] has as its target human α-glycoprotein (human) (UniProt P02763). Description: ITC, protein injected into dalbavancin.
Assay [6] concerns the target N,N′-diacetyl-Lys-D-Ala-D-Ala (Sigma D-9904, fw 372.4). As to the kind of experiment: ITC, 25 C, 288 µM HSA present.
The target of another assay is human serum proteins. Description: cell-based or functional assay.
A further assay has as its target mouse serum proteins. As to the kind of experiment: cell-based or functional assay.
The target in assay [7] is human albumin (HSA; Sigma A-3782; mw 69,366) (human) (UniProt P02768). As to the kind of experiment: calculated from ITC Ka, dalbavancin 1-500 µM.
Assay [8] deals with N,N′-diacetyl-Lys-D-Ala-D-Ala (Sigma D-9904, fw 372.4). Description: ITC, 37 C, no HSA.
Assay [9] shares this target. As to the kind of experiment: ITC, 25 C, non-competitive binding model (KL).
Assay [10] shares this target. As to the kind of experiment: ITC, 25 C, 430 µM HSA present.
The target is the same in assay [11]. Description: ITC, 25 C, no HSA.
For assay [12] the target is unchanged. As to the kind of experiment: ITC, 10 C, no HSA.
Assay [13] has the same target. As to the kind of experiment: ITC, 25 C, 513 µM HSA present.

dog albumin (dog), sequence (P49822 25-608 limits assumed): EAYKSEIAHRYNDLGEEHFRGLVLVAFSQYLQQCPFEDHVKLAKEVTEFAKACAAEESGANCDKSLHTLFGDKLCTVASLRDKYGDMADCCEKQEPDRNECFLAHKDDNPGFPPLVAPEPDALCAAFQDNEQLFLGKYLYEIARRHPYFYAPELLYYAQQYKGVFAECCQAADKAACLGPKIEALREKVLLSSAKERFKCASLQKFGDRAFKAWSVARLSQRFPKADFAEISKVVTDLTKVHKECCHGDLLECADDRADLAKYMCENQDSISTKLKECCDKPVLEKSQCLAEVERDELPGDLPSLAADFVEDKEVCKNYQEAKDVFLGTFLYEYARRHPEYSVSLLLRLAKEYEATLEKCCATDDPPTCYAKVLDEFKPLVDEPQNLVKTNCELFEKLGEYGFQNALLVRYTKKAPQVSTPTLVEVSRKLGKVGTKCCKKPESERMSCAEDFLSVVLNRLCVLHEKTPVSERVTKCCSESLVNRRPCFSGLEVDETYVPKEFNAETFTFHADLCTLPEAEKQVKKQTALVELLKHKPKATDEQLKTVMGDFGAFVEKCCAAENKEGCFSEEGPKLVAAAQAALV
human α-glycoprotein (human), sequence (P02763 19-201): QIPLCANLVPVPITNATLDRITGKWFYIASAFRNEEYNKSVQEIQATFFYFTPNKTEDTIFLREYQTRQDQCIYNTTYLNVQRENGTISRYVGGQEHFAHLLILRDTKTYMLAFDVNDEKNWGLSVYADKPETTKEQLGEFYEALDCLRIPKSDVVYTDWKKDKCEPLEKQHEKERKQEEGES

Take Dalbavancin (peptide): the N in assay [1] came out at 1.38; in [2], 0.179; in [4], 0.86; in assay [6], 0.9; in assay [8] it was 0.82; in assay [10] it was 1.24. The Kd in assay [3] is 10 µM; in [9], 3 µM. In addition, the N (moles of protein per dalbavancin) (with bovine albumin (bovine); in the assay with rat albumin (rat); in the assay with dog albumin (dog); in assay [5]) was below 1 each time. In addition, in the assay with human serum proteins, the degree of binding in human serum estimated from MIC difference was 96%. Also, the degree of protein binding estimated from MIC difference with mouse serum proteins is 99.6%. Besides, the percent bound in assay [7] is above 98%.

For the substance “Vancomycin hydrochloride (Sigma V-2002, fw 1485.7) (peptide)”, the N is 0.91 and 0.97 in [11]; 1.1 in [12]; 1.05 in assay [13].
